According to paper PMC2120799:

Biological target: cdk2 (NIH-3T3 cells) (mouse (endogenous in NIH-3T3)) (UniProt P97377)
Experiment: co-IP

Row | stoichiometry N (mol per mol cdk2) | Substance
1 | < 1 | p21 (NIH-3T3 cells) (from UniProt P39689 1-159) (natural protein)
2 | < 1 | p27 (NIH-3T3 cells) (from UniProt P46414 1-197) (natural protein)
